From patent US6528633

How the values were obtained:
[1] = system: clam E3-C/cyclosome complex, activated, partially purified
[2] = system: non-specific ubiquitin-protein ligase (E3) from clam oocyte Fraction 1A

Sequence of recombinant human Ubc4 homolog, UbcH5 (chain, as listed by the source): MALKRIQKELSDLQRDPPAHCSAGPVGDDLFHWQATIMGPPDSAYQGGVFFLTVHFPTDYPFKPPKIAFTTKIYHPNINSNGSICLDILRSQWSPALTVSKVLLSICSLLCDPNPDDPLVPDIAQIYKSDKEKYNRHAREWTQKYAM

recombinant human Ubc4 homolog, UbcH5
stimulation of cyclin-ubiquitin ligation [1]: UbcH5 caused some stimulation of cyclin-ubiquitin ligation by the clam E3-C/cyclosome complex, but the amount of conjugates formed and their size ... were much lower than those obtained with the recombinant clam protein | ligation of 125I-ubiquitin to high molecular weight conjugates [2]: UbcH5 strongly stimulated the ligation of 125I-ubiquitin to high molecular weight conjugates in the presence of non-specific E3 from clam oocytes
